What was measured:
[1] = target: HLA-B*07:02; experiment: IEDB peptide-MHC binding, purified MHC/competitive/radioactivity; ≥ and ≤ were set here for values at or beyond the usual limits of such assays
[2] = target: HLA-A*24:02; experiment: as above; details: source organism: Homo sapiens
[3] = target: HLA-A*02:01; experiment: IEDB peptide-MHC binding, purified MHC/competitive/fluorescence; filed as Kd, often an IC50 or EC50 that approximates it; ≥ and ≤ were set here for values at or beyond the usual limits of such assays
[4] = target: HLA-B*57:01; experiment: as above
[5] = target: HLA-A*03:01; experiment: as above; details: source organism: Rickettsia bellii RML369-C
[6] = target: HLA-B*18:01; experiment: as above; details: source organism: Rickettsia bellii RML369-C
[7] = target: HLA-A*80:01; experiment: as above; details: source organism: Rickettsia bellii RML369-C
[8] = target: HLA-A*29:02; experiment: as above; details: source organism: Rickettsia bellii RML369-C
[9] = target: HLA-B*27:03; experiment: as above
[10] = target: HLA-A*02:11; experiment: as above; details: source organism: Rickettsia bellii RML369-C
[11] = target: HLA-C*03:03; experiment: IEDB peptide-MHC binding, purified MHC/direct/fluorescence; filed as Kd, often an IC50 or EC50 that approximates it; ≥ and ≤ were set here for values at or beyond the usual limits of such assays; details: source organism: Rickettsia bellii RML369-C
[12] = target: HLA-C*05:01; experiment: as above
[13] = target: HLA-B*15:17; experiment: IEDB peptide-MHC binding, purified MHC/competitive/fluorescence; filed as Kd, often an IC50 or EC50 that approximates it; ≥ and ≤ were set here for values at or beyond the usual limits of such assays; details: source organism: Choclo virus
[14] = target: HLA-B*45:06; experiment: as above
[15] = target: HLA-B*46:01; experiment: as above; details: source organism: Choclo virus
[16] = target: HLA-B*15:01; experiment: as above; details: source organism: Choclo virus
[17] = target: HLA-B*83:01; experiment: as above
[18] = target: HLA-B*39:01; experiment: as above; details: source organism: Choclo virus
[19] = target: HLA-A*26:01; experiment: as above; details: source organism: Choclo virus
[20] = target: HLA-A*68:23; experiment: as above
[21] = target: HLA-B*35:01; experiment: as above; details: source organism: Choclo virus
[22] = target: HLA-B*15:42; experiment: as above
[23] = target: HLA-A*69:01; experiment: as above; details: source organism: Choclo virus
[24] = target: HLA-B*51:01; experiment: as above; details: source organism: Choclo virus
[25] = target: HLA-A*02:16; experiment: IEDB peptide-MHC binding, purified MHC/direct/fluorescence; filed as Kd, often an IC50 or EC50 that approximates it; ≥ and ≤ were set here for values at or beyond the usual limits of such assays; details: source organism: Choclo virus
[26] = target: HLA-A*02:03; experiment: as above; details: source organism: Choclo virus
[27] = target: HLA-A*02:19; experiment: as above; details: source organism: Choclo virus
[28] = target: HLA-A*24:03; experiment: as above; details: source organism: Choclo virus
[29] = target: HLA-A*03:01; experiment: as above; details: source organism: Choclo virus
[30] = target: HLA-B*07:02; experiment: as above; details: source organism: Orthohantavirus andesense
[31] = target: HLA-A*02:12; experiment: as above; details: source organism: Choclo virus
[32] = target: HLA-A*68:02; experiment: as above; details: source organism: Choclo virus
[33] = target: HLA-A*02:11; experiment: as above; details: source organism: Choclo virus
[34] = target: HLA-A*23:01; experiment: as above; details: source organism: Choclo virus
[35] = target: HLA-A*02:01; experiment: IEDB peptide-MHC binding, purified MHC/competitive/radioactivity; filed as Kd, often an IC50 or EC50 that approximates it; ≥ and ≤ were set here for values at or beyond the usual limits of such assays; details: source organism: Human immunodeficiency virus 1
[36] = target: HLA-A*32:15; experiment: IEDB peptide-MHC binding, purified MHC/competitive/fluorescence; filed as Kd, often an IC50 or EC50 that approximates it; ≥ and ≤ were set here for values at or beyond the usual limits of such assays; details: source organism: Homo sapiens
[37] = target: HLA-B*73:01; experiment: IEDB peptide-MHC binding, purified MHC/direct/fluorescence; filed as Kd, often an IC50 or EC50 that approximates it; ≥ and ≤ were set here for values at or beyond the usual limits of such assays; details: source organism: Mus musculus
[38] = target: HLA-C*06:02; experiment: as above; details: source organism: Homo sapiens
[39] = target: HLA-C*07:02; experiment: as above; details: source organism: Homo sapiens
[40] = source organism: Rickettsia bellii RML369-C

## FATCGIFAL
[1]; source organism: Lymphocytic choriomeningitis virus (strain Armstrong) (clone 53b)
  IC50: 6.23 µM

## TYSVSFDSLF
[2]
  IC50: 0.014 µM

## FTIGNMFSL
[3]; [40]
  Kd: 0.0244 µM
[4]; [40]
  Kd: ≥ 20 µM
[5]
  Kd: ≥ 20 µM
[6]
  Kd: ≥ 20 µM
[7]
  Kd: ≥ 20 µM
[8]
  Kd: 0.738 µM
[9]; [40]
  Kd: ≥ 20 µM
[10]
  Kd: 0.0059 µM
[11]
  Kd: 0.055 µM
[12]; [40]
  Kd: ≥ 20 µM

## LPSSSSYSY
[3]; source organism: Choclo virus
  Kd: ≥ 20 µM
[13]
  Kd: ≥ 20 µM
[14]; source organism: Choclo virus
  Kd: ≥ 5 µM
[4]; source organism: Choclo virus
  Kd: ≥ 20 µM
[15]
  Kd: ≥ 20 µM
[16]
  Kd: ≥ 20 µM
[17]; source organism: Choclo virus
  Kd: 0.747 µM
[18]
  Kd: ≥ 20 µM
[9]; source organism: Choclo virus
  Kd: ≥ 20 µM
[19]
  Kd: ≥ 20 µM
[20]; source organism: Choclo virus
  Kd: 1.6 µM
[21]
  Kd: ≤ 0.0001 µM
[22]; source organism: Choclo virus
  Kd: ≥ 5 µM
[23]
  Kd: ≥ 20 µM
[24]
  Kd: ≥ 20 µM
[25]
  Kd: ≥ 20 µM
[26]
  Kd: ≥ 20 µM
[27]
  Kd: ≥ 20 µM
[28]
  Kd: ≥ 20 µM
[29]
  Kd: ≥ 20 µM
[30]
  Kd: 14 µM
[31]
  Kd: ≥ 20 µM
[32]
  Kd: ≥ 20 µM
[33]
  Kd: ≥ 20 µM
[34]
  Kd: ≥ 20 µM

## FPVRPQVPL
[35]
  Kd: ≥ 35 µM
[1]; source organism: Human immunodeficiency virus 1
  IC50: 0.016 µM

## NYARTEDFF
[2]
  IC50: 0.067 µM

## MPMKGRFPI
[14]; source organism: Homo sapiens
  Kd: ≥ 5 µM
[36]
  Kd: 0.295 µM
[17]; source organism: Homo sapiens
  Kd: 0.069 µM
[20]; source organism: Homo sapiens
  Kd: 0.271 µM
[22]; source organism: Homo sapiens
  Kd: ≥ 5 µM
[37]
  Kd: 6 µM
[38]
  Kd: ≥ 20 µM
[12]; source organism: Homo sapiens
  Kd: ≥ 20 µM
[39]
  Kd: ≥ 20 µM
